Bounds are passed on as bounds.

This test addresses His-tagged L16 protein (recombinant, produced in YcfD knock out strain JW1114) (E. coli) (UniProt A7ZSK2). Description: cell-based or functional assay.

For “YcfD ectopically expressed in the deletion strain JW1114 (co-expressed with L16 from pETDuet-1) (from UniProt P27431 1-373) (enzyme)”, the hydroxylation of R-81 in L16 in vivo (MS); unmodified peptide detected (% unmodified peptide) was less than 1.

The values are drawn from patent US20140045930A1, “ASSAY FOR ARGINYL HYDROXYLASE ACTIVITY” (priority 2011, published 2014).
